In the supplement of paper PMC9112550, “Optimization of the antimicrobial peptide Bac7 by deep mutational scanning” (BMC Biology, 2022):

Test system: Escherichia coli TOP10
Assay: shrunken log2 fold change of peptide-encoding DNA abundance (4.5 h post-induction vs induction); higher = less antimicrobial activity (less host growth inhibition)
Settings: time post-induction: 4.5 h; library: site-saturation at positions 5, 18, 19, 20
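Further: peptides expressed intracellularly from a pBAD plasmid library in pooled LB shake-flask culture, induced with 0.3% L-arabinose, DNA abundance read by NGS, three biological replicates, DESeq2 with apeglm shrinkage.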

Row | Sequence | shrunken log2 fold change
1 | RRIRWRPPRLPRPRPRPDEKPRP | 0.0625
2 | RRIRLRPPRLPRPRPRPVGEPRP | 0.12
3 | RRIRDRPPRLPRPRPRPMTKPRP | -0.0341
4 | RRIRCRPPRLPRPRPRPKEKPRP | 0.00563
5 | RRIRVRPPRLPRPRPRPFIRPRP | -0.148
6 | RRIRDRPPRLPRPRPRPDNQPRP | -0.105
7 | RRIRDRPPRLPRPRPRPEKEPRP | 0.127
8 | RRIRMRPPRLPRPRPRPFCSPRP | 0.0534
9 | RRIRARPPRLPRPRPRPEVFPRP | 0.401
10 | RRIRRRPPRLPRPRPRPNGDPRP | 0.241
11 | RRIRDRPPRLPRPRPRPQMMPRP | -0.211
12 | RRIRQRPPRLPRPRPRPIKPPRP | 0.0492
13 | RRIRRRPPRLPRPRPRPFHKPRP | 0.0306
14 | RRIRFRPPRLPRPRPRPMCDPRP | 0.226
15 | RRIRSRPPRLPRPRPRPYNEPRP | -0.554
16 | RRIRDRPPRLPRPRPRPYWPPRP | -0.547
17 | RRIRWRPPRLPRPRPRPDHAPRP | 0.391
18 | RRIRWRPPRLPRPRPRPSKTPRP | 0.0507
19 | RRIRSRPPRLPRPRPRPACVPRP | 0.224
20 | RRIRKRPPRLPRPRPRPMKFPRP | -0.0265
21 | RRIRWRPPRLPRPRPRPIYEPRP | -0.355
22 | RRIRHRPPRLPRPRPRPTWNPRP | -0.267
23 | RRIRIRPPRLPRPRPRPYSTPRP | -1.85
24 | RRIRNRPPRLPRPRPRPREVPRP | 0.00782
25 | RRIRWRPPRLPRPRPRPLMFPRP | -0.122

Row | Sequence | shrunken log2 fold change
26 | RRIRYRPPRLPRPRPRPKKSPRP | -0.298
27 | RRIRVRPPRLPRPRPRPTVLPRP | -0.0891
28 | RRIRGRPPRLPRPRPRPIEVPRP | 0.289
29 | RRIRNRPPRLPRPRPRPEWKPRP | 0.0303
30 | RRIRFRPPRLPRPRPRPSDHPRP | -0.221
31 | RRIRCRPPRLPRPRPRPSDDPRP | 0.334
32 | RRIRERPPRLPRPRPRPTARPRP | 0.258
33 | RRIRTRPPRLPRPRPRPYYCPRP | -0.249
34 | RRIRLRPPRLPRPRPRPTCTPRP | -0.0583
35 | RRIRGRPPRLPRPRPRPIPSPRP | 0.485
36 | RRIRCRPPRLPRPRPRPEWCPRP | 0.145
37 | RRIRCRPPRLPRPRPRPYFAPRP | -0.563
38 | RRIRARPPRLPRPRPRPLKLPRP | -0.152
39 | RRIRTRPPRLPRPRPRPLNWPRP | -0.246
40 | RRIRWRPPRLPRPRPRPNSPPRP | -0.255
41 | RRIRKRPPRLPRPRPRPRQCPRP | -0.0759
42 | RRIRWRPPRLPRPRPRPYNTPRP | -0.162
43 | RRIRKRPPRLPRPRPRPALKPRP | 0.48
44 | RRIRQRPPRLPRPRPRPSNGPRP | -0.687
45 | RRIRGRPPRLPRPRPRPWQCPRP | 0.0158
46 | RRIRARPPRLPRPRPRPNNRPRP | -0.326
47 | RRIRCRPPRLPRPRPRPEMWPRP | 0.166
48 | RRIRIRPPRLPRPRPRPPSWPRP | 0.0866
49 | RRIRQRPPRLPRPRPRPAPCPRP | 0.222
50 | RRIRKRPPRLPRPRPRPHWFPRP | 0.096

Row | Sequence | shrunken log2 fold change
51 | RRIRYRPPRLPRPRPRPQYWPRP | -0.696
52 | RRIRGRPPRLPRPRPRPWWMPRP | 0.322
53 | RRIRMRPPRLPRPRPRPFKNPRP | 0.129
54 | RRIRTRPPRLPRPRPRPQHHPRP | -0.453
55 | RRIRLRPPRLPRPRPRPRVVPRP | -0.0437
56 | RRIRQRPPRLPRPRPRPFKKPRP | 0.0942
57 | RRIRGRPPRLPRPRPRPAVLPRP | 0.394
58 | RRIRHRPPRLPRPRPRPWWTPRP | 0.00261
59 | RRIRIRPPRLPRPRPRPCYGPRP | -0.202
60 | RRIRRRPPRLPRPRPRPFWTPRP | 0.00443
61 | RRIRWRPPRLPRPRPRPGWSPRP | 0.221
62 | RRIRERPPRLPRPRPRPLDWPRP | -0.0749
63 | RRIRVRPPRLPRPRPRPLWFPRP | 0.125
64 | RRIRRRPPRLPRPRPRPRQHPRP | 0.288
65 | RRIRDRPPRLPRPRPRPNQLPRP | -0.0966
66 | RRIRLRPPRLPRPRPRPSHCPRP | -0.117
67 | RRIRLRPPRLPRPRPRPIWRPRP | 0.102
68 | RRIRHRPPRLPRPRPRPLLQPRP | 0.112
69 | RRIRDRPPRLPRPRPRPNENPRP | -0.177
70 | RRIRQRPPRLPRPRPRPMYIPRP | -0.0435
71 | RRIRKRPPRLPRPRPRPHDCPRP | 0.108
72 | RRIRNRPPRLPRPRPRPLTVPRP | 0.0619
73 | RRIRYRPPRLPRPRPRPVHPPRP | -0.186
74 | RRIRQRPPRLPRPRPRPPLTPRP | 0.0676
75 | RRIRHRPPRLPRPRPRPKPPPRP | 0.55
